Reference: patent US20260234252A1 (Janssen / Centocor, published 2026)
Values joined by “and” are separate entries in the source; they are usually repeats but may differ in a detail not shown here. Equal entries are not always repeated.

Biological target: T1, Vβ17 on human CD8+ T cells (human)
T1 construct: whole, on cells; Polyclonal donor T cells; also called Vβ17+ CD8+ T cells; M1-stimulated T-cells
Assay: flow cytometry on FLU MP 58 stimulated CD8+ T cells, anti-human IgG4 Fc-PE

T1 sequence (A0A075B6N1 22-114): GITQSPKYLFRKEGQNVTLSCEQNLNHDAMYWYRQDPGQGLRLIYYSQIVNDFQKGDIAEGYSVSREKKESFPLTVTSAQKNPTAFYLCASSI

B1: VB11 (anti-Vβ17/anti-CD123) bispecific antibody (bispecific antibody, human IgG4 S228P, kappa, F234A L235A)
heavy 1: QVQLQESGPGLVKPSETLSLTCTVSGYSITSGYFWNWIRQPPGKGLEWIGYISYDGSNNYNPSLKSRVTISRDTSKNQFSLKLSSVTAADTAVYYCASPSPGTGYAVDYWGQGTLVTVSSASTKGPSVFPLAPCSRSTSESTAALGCLVKDYFPEPVTVSWNSGALTSGVHTFPAVLQSSGLYSLSSVVTVPSSSLGTKTYTCNVDHKPSNTKVDKRVESKYGPPCPPCPAPEAAGGPSVFLFPPKPKDTLMISRTPEVTCVVVDVSQEDPEVQFNWYVDGVEVHNAKTKPREEQFNSTYRVVSVLTVLHQDWLNGKEYKCKVSNKGLPSSIEKTISKAKGQPREPQVYTLPPSQEEMTKNQVSLSCAVKGFYPSDIAVEWESNGQPENNYKTTPPVLDSDGSFFLVSRLTVDKSRWQEGNVFSCSVMHEALHNRFTQKSLSLSLGK
light 1: DIQMTQSPSSLSASVGDRVTITCRSSQSLVHSNGNTYLHWYQQKPGKAPKFLIYKVSNRFSGVPSRFSGSGSGTDFTLTISSLQPEDFATYYCSQSTHVPFTFGQGTKLEIKRTVAAPSVFIFPPSDEQLKSGTASVVCLLNNFYPREAKVQWKVDNALQSGNSQESVTEQDSKDSTYSLSSTLTLSKADYEKHKVYACEVTHQGLSSPVTKSFNRGEC
heavy 2: EVQLVQSGAEVKKPGESLKISCKGSGYSFTSYWISWVRQMPGKGLEWMGIIDPSDSDTRYSPSFQGQVTISADKSISTAYLQWSSLKASDTAMYYCARGDGSTDLDYWGQGTLVTVSSASTKGPSVFPLAPCSRSTSESTAALGCLVKDYFPEPVTVSWNSGALTSGVHTFPAVLQSSGLYSLSSVVTVPSSSLGTKTYTCNVDHKPSNTKVDKRVESKYGPPCPPCPAPEAAGGPSVFLFPPKPKDTLMISRTPEVTCVVVDVSQEDPEVQFNWYVDGVEVHNAKTKPREEQFNSTYRVVSVLTVLHQDWLNGKEYKCKVSNKGLPSSIEKTISKAKGQPREPQVYTLPPSQEEMTKNQVSLWCLVKGFYPSDIAVEWESNGQPENNYKTTPPVLDSDGSFFLYSRLTVDKSRWQEGNVFSCSVMHEALHNHYTQKSLSLSLGK
light 2: EIVLTQSPGTLSLSPGERATLSCRASQSVSSSYLAWYQQKPGQAPRLLIYGASSRATGIPDRFSGSGSGTDFTLTISRLEPEDFAVYYCQQDYGFPWTFGQGTKVEIKRTVAAPSVFIFPPSDEQLKSGTASVVCLLNNFYPREAKVQWKVDNALQSGNSQESVTEQDSKDSTYSLSSTLTLSKADYEKHKVYACEVTHQGLSSPVTKSFNRGEC
notes: also called Vβ17 and CD123 bispecific
EC50: 1.35 µg/mL and 9 nM

B2: VB13 (Vβ17×Null) bispecific antibody (bispecific antibody, human IgG4 S228P, kappa, F234A L235A)
heavy 1: B1 heavy 1
light 1: B1 light 1
heavy 2: not shown
light 2: not shown
notes: also called Vβ17XNULL; Vβ17 x Null
EC50: 2.8 µg/mL and 18.7 nM
